The assay addresses T1, HLA-A*02:01 (human).
T1 construct: monomers captured on streptavidin plates; also called MHC class I
Briefly: UV peptide exchange ELISA. In a few lines: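 Peptide-MHC complexes formed by UV-triggered exchange of a cleavable peptide for the test peptide, with stabilised complexes indicating binding. Exchange products diluted 100 fold onto streptavidin-coated wells, 1h at 37° C.; HRP anti-β2m (2 μg/ml), TMB, absorbance at 450 nm gives exchange yield.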

These results are taken from patent US20170037110A1 (IMMATICS BIOTECHNOLOGIES, published 2017).

Non-standard residues stand in square brackets, D forms with d. No end group written: not given here. pS = N[C@@H](COP(=O)(O)O)C(=O)O

In turn, YLISQVEGHQV came in with a peptide exchange yield of 50 to 75%.
In the case of IMEDIILTL it was 50 to 75%.
In the case of TLAELQPPVQL it was 50 to 75%; in that of SLLPLSHLV, 50 to 75%; in that of ILLSVPLLVV, 20 to 50%.
In the case of RLLPPGAVVAV it was 50 to 75%; in that of TLCDVILMV, 50 to 75%.
FLLAHGLGFLL registered a peptide exchange yield not below 75%.
In the case of IMLKGDNITL it was 50 to 75%; in that of LLAPTPYIIGV, 50 to 75%; in that of ALANQIPTV, 20 to 50%.
In the case of FLDPGGPMMKL it was 50 to 75%.
In the case of SLLSVSHAL it was 50 to 75%; in that of VLPPDTDPA, 20 to 50%; in that of NLMEMVAQL, 20 to 50%.
Turning to ILTEENIHL, the peptide exchange yield was 50 to 75%.
In the case of ALWETEVYI it was 50 to 75%; in that of GLPRFGIEMV, 50 to 75%.
Consider ALQDRVPLA, for which the peptide exchange yield lay within 50 to 75%.
The molecule ALLDQTKTLAESAL had a peptide exchange yield of 50 to 75%.
In the case of VMFEDGVLMRL it was 50 to 75%.
In the case of LLPDLEFYV it was not below 75%; in that of SLDSTLHAV, 50 to 75%.
In the case of KMIETDILQKV it was not below 75%; in that of ALWDLAADKQTL, not below 75%; in that of SILDRDDIFV, 50 to 75%.
Molecule SAFPFPVTV registered a peptide exchange yield of 50 to 75%.
In the case of VLIDEVESL it was 50 to 75%; in that of LLMENAERV, 20 to 50%.
In the case of ILVANAIVGV it was 50 to 75%; in that of LLLPDQPPYHL, 50 to 75%.
Molecule SLLDLETLSL registered a peptide exchange yield not below 75%.
In turn, YLLQEPPRTV showed a peptide exchange yield of 20 to 50%.
Molecule RLYSGISGLEL came in with a peptide exchange yield of 50 to 75%.
In the case of KLYPQLPAEI it was 50 to 75%; in that of ILANDGVLLAA, 50 to 75%; in that of KLYEGIPVLL, not below 75%.
With SLSELEALM, the peptide exchange yield lay in the range of 50 to 75%.
For SMAELDIKL, the peptide exchange yield was in the range of 50 to 75%.
The molecule ILLNNSGQIKL displayed a peptide exchange yield not below 75%.
In the case of VLLSIYPRV it was 50 to 75%; in that of ALWKQLLEL, 50 to 75%; in that of ALAEVAAMENV, 50 to 75%.
ALAAPDIVPAL gave a peptide exchange yield of 50 to 75%.
In the case of KLLNKIYEA it was not below 75%.
Molecule YLLEQIKLIEV showed a peptide exchange yield not below 75%.
In the case of SLIEKLWQT it was 20 to 50%.
The molecule FLFPHSVLV gave a peptide exchange yield of 50 to 75%.
In the case of LLLTTIPQI it was 50 to 75%.
In the case of ALAELYEDEV it was 50 to 75%; in that of VLMDRLPSLL, not below 75%.
For the molecule KLYEAVPQL, the peptide exchange yield was 50 to 75%.
In turn, VLFDSESIGIYV displayed a peptide exchange yield of 50 to 75%.
In the case of KLKPGDLVGV it was 50 to 75%; in that of FLIEPEHVNTV, 20 to 50%.
In the case of YLLDDGTLVV it was not below 75%; in that of ALMYESEKVGV, 50 to 75%; in that of YLVEDIQHI, 50 to 75%.
In the case of YLLNDASLISV it was 50 to 75%.
As for RLL[pS]AAENFL [RLLJAAENFL], the peptide exchange yield was 50 to 75%.
In the case of ALADLIEKELSV it was 50 to 75%; in that of SLLEQGKEPWMV, 50 to 75%.
In the case of VMNDRLYAI it was 50 to 75%.
In the case of KLLEGQVIQL it was 50 to 75%; in that of YLYNEGLSV, 50 to 75%.
With RLLGEEVVRVLQA, the peptide exchange yield fell in the range of 50 to 75%.
YLPAVFEEV displayed a peptide exchange yield of 50 to 75%.
